Reference: patent publication US20040208880A1 (University of Texas, published 2004)

Assays:
[1] = target: T1, dynein light chain-1/protein inhibitor of nitric oxide synthase (DLC1/PIN), amino acids 1-89 (human, UniProt P63167 1-89); test: GST pull-down with in vitro translated DLC1/PIN
T1 construct: Used both as in vitro translated 35S-labeled protein (aa 1-89) and as the endogenous protein of human cell lines (MCF-7, Ishikawa)

[2] = target: T2, estrogen receptor alpha (ER), full-length (UniProt P03372 1-595); test: GST pull-down with in vitro translated 35S-ER
T2 construct: Used as in vitro translated 35S-labeled full-length ER and as the endogenous ER of human cell lines (Ishikawa, MCF-7 derivatives); also called ERα; ERá
T2 sequence (looked up): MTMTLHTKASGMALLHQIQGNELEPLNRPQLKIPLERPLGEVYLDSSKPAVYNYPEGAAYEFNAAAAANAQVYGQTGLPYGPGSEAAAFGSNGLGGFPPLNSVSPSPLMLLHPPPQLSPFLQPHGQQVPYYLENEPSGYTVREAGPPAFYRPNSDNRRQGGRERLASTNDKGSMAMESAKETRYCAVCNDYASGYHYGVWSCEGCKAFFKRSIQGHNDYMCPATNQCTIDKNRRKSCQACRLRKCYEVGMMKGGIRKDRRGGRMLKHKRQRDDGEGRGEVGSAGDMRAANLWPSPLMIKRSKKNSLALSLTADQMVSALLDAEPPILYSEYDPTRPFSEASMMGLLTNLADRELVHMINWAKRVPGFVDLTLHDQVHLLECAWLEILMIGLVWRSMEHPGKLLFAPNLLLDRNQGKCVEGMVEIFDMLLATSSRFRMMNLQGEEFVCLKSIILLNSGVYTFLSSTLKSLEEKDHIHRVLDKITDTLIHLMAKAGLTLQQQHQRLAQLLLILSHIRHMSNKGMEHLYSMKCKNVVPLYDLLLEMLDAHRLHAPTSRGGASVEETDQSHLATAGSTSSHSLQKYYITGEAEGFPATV

[3] = target: T1, dynein light chain-1/protein inhibitor …; test: immunoprecipitation with HA antibody from Tet on-HA-Pak1-T423E MCF-7 cells, immunoblot
[4] = target: T2, estrogen receptor alpha (ER), …; test: immunoprecipitation with anti-Pak1 Ab, immunoblot with ERα Ab

B1: GST-Pak1 auto inhibitory domain (other)
chain: RFYRSILPGDKTNKKKEKERPEISLPSDFEHTIHVGFDAVTGEFTGMPEQWARLLQTSNITKSEQKKNPQAVLDVLEFYN
notes: not shown: glutathione-S-transferase (GST) fusion partner
B1: no binding [1].

B2: GST-Pak1 Cdc42/Rac-interacting (CRIB) domain (other)
chain: ISLPSDFEHTIHVGFDAVTGEFTGMPEQWARLLQTSNITKSEQKKNPQAVLDVLEFYNSKKTSNSQKYMSFTDKS
notes: as for B1
B2: no binding [1].

B3: GST-Pak1 N-terminal domain (amino acids 1-132) (other)
chain: MSNNGLDIQDKPPAPPMRNTSTMIGVGSKDAGTLNHGSKPLPPNPEEKKKKDRFYRSILPGDKTNKKKEKERPEISLPSDFEHTIHVGFDAVTGEFTGMPEQWARLLQTSNITKSEQKKNPQAVLDVLEFYN
notes: as for B1
B3: no binding [1].

B4: GST-DLC1 deletion construct lacking the C-terminal amino acids 67-89 (other)
chain: MCDRKAVIKNADMSEEMQQDSVECATQALEKYNIEKDIAAHIKKEFDKKYNPTWHCIVGRNFGSYV
notes: not shown: GST fusion partner at the N end and any linker to it
B4: no binding [2].

B5: HA-tagged T423E Pak1 (catalytically active Pak1) (enzyme)
chain: MSNNGLDIQDKPPAPPMRNTSTMIGVGSKDAGTLNHGSKPLPPNPEEKKKKDRFYRSILPGDKTNKKKEKERPEISLPSDFEHTIHVGFDAVTGEFTGMPEQWARLLQTSNITKSEQKKNPQAVLDVLEFYNSKKTSNSQKYMSFTDKSAEDYNSSNALNVKAVSETPAVPPVSEDEDDDDDDATPPPVIAPRPEHTKSVYTRSVIEPLPVTPTRDVATSPISPTENNTTPPDALTRNTEKQKKKPKMSDEEILEKLRSIVSVGDPKKKYTRFEKIGQGASGTVYTAMDVATGQEVAIKQMNLQQQPKKELIINEILVMRENKNPNIVNYLDSYLVGDELWVVMEYLAGGSLTDVVTETCMDEGQIAAVCRECLQALEFLHSNQVIHRDIKSDNILLGMDGSVKLTDFGFCAQITPEQSKRSEMVGTPYWMAPEVVTRKAYGPKVDIWSLGIMAIEMIEGEPPYLNENPLRALYLIATNGTPELQNPEKLSAIFRDFLNRCLDMDVEKRGSAKELLQHQFLKIAKPLSSLTPLIAAAKEATKNNH
notes: Expressed in MCF-7 cells under a Tet-on promoter; also called HA-Pak1-T423E; not shown: HA tag
B5: binds [3].

B6: p21-activated protein kinase 1 (Pak1), full-length, amino acids 1-545 (enzyme)
chain: MSNNGLDIQDKPPAPPMRNTSTMIGVGSKDAGTLNHGSKPLPPNPEEKKKKDRFYRSILPGDKTNKKKEKERPEISLPSDFEHTIHVGFDAVTGEFTGMPEQWARLLQTSNITKSEQKKNPQAVLDVLEFYNSKKTSNSQKYMSFTDKSAEDYNSSNALNVKAVSETPAVPPVSEDEDDDDDDATPPPVIAPRPEHTKSVYTRSVIEPLPVTPTRDVATSPISPTENNTTPPDALTRNTEKQKKKPKMSDEEILEKLRSIVSVGDPKKKYTRFEKIGQGASGTVYTAMDVATGQEVAIKQMNLQQQPKKELIINEILVMRENKNPNIVNYLDSYLVGDELWVVMEYLAGGSLTDVVTETCMDEGQIAAVCRECLQALEFLHSNQVIHRDIKSDNILLGMDGSVKLTDFGFCAQITPEQSKRSTMVGTPYWMAPEVVTRKAYGPKVDIWSLGIMAIEMIEGEPPYLNENPLRALYLIATNGTPELQNPEKLSAIFRDFLNRCLDMDVEKRGSAKELLQHQFLKIAKPLSSLTPLIAAAKEATKNNH
notes: Used both as in vitro translated 35S-labeled full-length protein and as the endogenous protein of human cell lines
B6: binds [4].
